Assay [1] deals with C. elegans Hsp90 (HSP-90) (C. elegans) (UniProt Q18688). The assay can be described thus: AUC; sedimentation velocity with fluorescence detection; 600 nM ATTO 488-labelled GRLBDm, 3 μM unlabelled chaperones and cofactors, no nucleotide; 20 mM HEPES, 20 mM KCl, 5 mM MgCl2, 50 μM dexamethasone, pH 7.5; 42,000 rpm, 20 °C.
The target is the same in assay [2]. The assay can be described thus: AUC; sedimentation velocity with fluorescence detection; 600 nM ATTO 488-labelled GRLBDm, 3 μM unlabelled chaperones and cofactors, 2 mM ATPγS; 20 mM HEPES, 20 mM KCl, 5 mM MgCl2, 50 μM dexamethasone, pH 7.5; 42,000 rpm, 20 °C.

With “ATTO 488-labelled GRLBDm, the ligand-binding domain of the human glucocorticoid receptor stabilized by mutagenesis (F602S/A605V/V702A/E705G/M752T) (domain or fragment)”, the fraction of GRLBDm bound in assay [1] was 0.49. In assay [2], this substance returned a fraction of GRLBDm bound of 0.22 and a fraction of GRLBDm bound (with Cep23/DAF-41 added) of 0.28.

(Values after paper PMC7329908.)
